From article PMC3887213
Substitutions are numbered along the chain they refer to.

B1: LRRK2 RocCOR tandem domain (LexA-BD bait, wild type) [human] / TUBB4 C terminus (Phe-317 to Ala-444), GAL4-AD prey [human] (parent)
chain 1: KAVPYNRMKLMIVGNTGSGKTTLLQQLMKTKKSDLGMQSATVGIDVKDWPIQIRDKRKRDLVLNVWDFAGREEFYSTHPHFMTQRALYLAVYDLSKGQAEVDAMKPWLFNIKARASSSPVILVGTHLDVSDEKQRKACMSKITKELLNKRGFPAIRDYHFVNATEESDALAKLRKTIINESLNFKIRDQLVVGQLIPDCYVELEKIILSERKNVPIEFPVIDRKRLLQLVRENQLQLDENELPHAVHFLNESGVLLHFQDPALQLSDLYFVEPKWLCKIMAQILTVKVEGCPKHPKGIISRRDVEKFLSKKRKFPKNYMSQYFKLLEKFQIALPIGEEYLLVPSSLSDHRPVIELPHCENSEIIIRLYEMPYFPMGFWSRLINRLLEISPYMLSGRERALRPNRMYWRQGIYL
chain 2: FRGRMSMKEVDEQMLSVQSKNSSYFVEWIPNNVKTAVCDIPPRGLKMAATFIGNSTAIQELFKRISEQFTAMFRRKAFLHWYTGEGMDEMEFTEAESNMNDLVSEYQQYQDATAEEGEFEEEAEEEVA
B2: LRRK2 RocCOR tandem domain (LexA-BD bait, wild type) [human] / TUBB C terminus (Phe-317 to the stop codon), GAL4-AD prey [human] (parent)
chain 1: B1 chain 1
chain 2: B1 chain 2 with S16N, S19N, A49V, G117E, F119D, E120F, E121G, A123E, E124A, V127E

Variants of: B1
Assay: quantitative yeast two-hybrid (Q-YTH)
Conditions: with TUBB4 C terminus (Phe-317 to Ala-444), n = 5, read off a plot

| Variant | percent of parent |
| --- | --- |
| chain 1 T164A | 86% |
| chain 1 T16A | 115% |
| chain 1 T16D | 62% |

Variants of: B2
Assay: quantitative yeast two-hybrid (Q-YTH)
Conditions: with TUBB C terminus (Phe-317 to the stop codon), n = 5, read off a plot

| Variant | percent of parent |
| --- | --- |
| chain 1 T164D | 35% |
| chain 1 T164A | 97% |
| chain 1 T16D | 58% |
| chain 1 T16A | 130% |
